Columns and labels:
[1] = WO 2008/009798, cited from earlier work
[2] = test system: tumor necrosis factor-α (TNF-α) produced by LPS activated neutrophils; experiment: TNF-α production by LPS activated neutrophils (ELISA); format: cell-based, rat; details: for TNF-α % Inhibition: relative to LPS only control
Protocol: (§1) The anti-inflammatory properties of the cationic fraction, IDP, and the combination of IDP with chondroitin and glucosamine were determined by measuring their ability to inhibit the production of the inflammatory compounds, tumor necrosis factor-α (TNF-α) and interleukin-6 (IL-6) produced by LPS activated neutrophils. […] Neutrophils were isolated from rat blood and incubated in the presence of LPS. LPS is derived from bacterial cell walls and is used to mimic a 'bacterial infection'. […] Two of these cytokine are TNF-α and IL-6. The concentrations of both cytokines produced by neutrophils exposed to LPS and the various test substances are summarised graphically in FIGS. 1 and 2 respectively. […] Aliquots from each set of triplicates were combined, and duplicates assayed for cytokine concentrations. The plate blank was subtracted from each individual data point. A VersaMax 96-well plate reader was used to colorimetrically assess the production of TNF-α and IL-6 as determined by the ELISA, using Rat TNF-α ELISA kit, R&D Systems, Cat # RTA00, and Rat IL-6 ELISA kit, R&D Systems, Cat # […]. The average cytokine concentration, standard deviation and standard error were calculated for each data set (sample and concentration). Preliminary statistical significance was assessed using independent Student t-tests at α≦0.05.

[3] = test system: interleukin-6 (IL-6) produced by LPS activated neutrophils; experiment: IL-6 production by LPS activated neutrophils (ELISA); format: cell-based, rat; details: for IL-6 % Inhibition: relative to LPS only control
Protocol: as §1

Molecule | anti-inflammatory activity of the composition on its own [1] | anti-inflammatory activity compared with glucosamine and chondroitin sulphate alone ([1]; combined with glucosamine and chondroitin sulphate) | TNF-α ([2]; 1 μg/ml) | TNF-α % Inhibition ([2]; 1 μg/ml) | TNF-α ([2]; 10 μg/ml) | TNF-α % Inhibition ([2]; 10 μg/ml) | TNF-α ([2]; 100 μg/ml) | TNF-α % Inhibition ([2]; 100 μg/ml) | stimulation of TNF-α levels ([2]; highest concentration tested) | effect on TNF-α, in words ([2]; lowest concentrations tested) | effect on TNF-α, in words ([2]; over the concentrations tested) | IL-6 ([3]; 1 μg/ml) | IL-6 % Inhibition ([3]; 1 μg/ml) | IL-6 ([3]; 10 μg/ml) | IL-6 % Inhibition ([3]; 10 μg/ml) | IL-6 ([3]; 100 μg/ml) | IL-6 % Inhibition ([3]; 100 μg/ml) | stimulation of IL-6 levels ([3]; highest concentration tested) | effect on IL-6, in words ([3]; lowest concentrations tested) | effect on IL-6, in words ([3]; over the concentrations tested)
pure lactoferrin (90%): composition 1 of WO 2008/009798: pure lactoferrin (90%) (protein, UniProt P24627 20-708, looked up, 90% pure preparation) Lactotransferrin: APRKNVRWCTISQPEWFKCRRWQWRMKKLGAPSITCVRRAFALECIRAIAEKKADAVTLDGGMVFEAGRDPYKLRPVAAEIYGTKESPQTHYYAVAVVKKGSNFQLDQLQGRKSCHTGLGRSAGWIIPMGILRPYLSWTESLEPLQGAVAKFFSASCVPCIDRQAYPNLCQLCKGEGENQCACSSREPYFGYSGAFKCLQDGAGDVAFVKETTVFENLPEKADRDQYELLCLNNSRAPVDAFKECHLAQVPSHAVVARSVDGKEDLIWKLLSKAQEKFGKNKSRSFQLFGSPPGQRDLLFKDSALGFLRIPSKVDSALYLGSRYLTTLKNLRETAEEVKARYTRVVWCAVGPEEQKKCQQWSQQSGQNVTCATASTTDDCIVLVLKGEADALNLDGGYIYTAGKCGLVPVLAENRKSSKHSSLDCVLRPTEGYLAVAVVKKANEGLTWNSLKDKKSCHTAVDRTAGWNIPMGLIVNQTGSCAFDEFFSQSCAPGADPKSRLCALCAGDDQGLDKCVPNSKEKYYGYTGAFRCLAEDVGDVAFVKNDTVWENTNGESTADWAKNLNREDFRLLCLDGTRKPVTEAQSCHLAVAPNHAVVSRSDRAAHVKQVLLHQQALFGKNGKNCPDKFCLFKSETKNLLFNDNTECLAKLGGRPTYEEYLGTEYVTAIANLKKCSTSPLLEACAFLTR | Neither of these compositions showed significant anti-inflammatory activity | significantly better | – | – | – | – | – | – | – | – | – | – | – | – | – | – | – | – | – | –
Lactoferrin: milk immune defence protein (P24627), tested on its own (protein, UniProt P24627 20-708, looked up) Lactotransferrin: APRKNVRWCTISQPEWFKCRRWQWRMKKLGAPSITCVRRAFALECIRAIAEKKADAVTLDGGMVFEAGRDPYKLRPVAAEIYGTKESPQTHYYAVAVVKKGSNFQLDQLQGRKSCHTGLGRSAGWIIPMGILRPYLSWTESLEPLQGAVAKFFSASCVPCIDRQAYPNLCQLCKGEGENQCACSSREPYFGYSGAFKCLQDGAGDVAFVKETTVFENLPEKADRDQYELLCLNNSRAPVDAFKECHLAQVPSHAVVARSVDGKEDLIWKLLSKAQEKFGKNKSRSFQLFGSPPGQRDLLFKDSALGFLRIPSKVDSALYLGSRYLTTLKNLRETAEEVKARYTRVVWCAVGPEEQKKCQQWSQQSGQNVTCATASTTDDCIVLVLKGEADALNLDGGYIYTAGKCGLVPVLAENRKSSKHSSLDCVLRPTEGYLAVAVVKKANEGLTWNSLKDKKSCHTAVDRTAGWNIPMGLIVNQTGSCAFDEFFSQSCAPGADPKSRLCALCAGDDQGLDKCVPNSKEKYYGYTGAFRCLAEDVGDVAFVKNDTVWENTNGESTADWAKNLNREDFRLLCLDGTRKPVTEAQSCHLAVAPNHAVVSRSDRAAHVKQVLLHQQALFGKNGKNCPDKFCLFKSETKNLLFNDNTECLAKLGGRPTYEEYLGTEYVTAIANLKKCSTSPLLEACAFLTR | – | – | 226.19 pg/mL | 17.9% | 242.58 pg/mL | 11.9% | 325.95 pg/mL | −18.4% | 18% | no statistically significant effect | appeared not to act as anti-inflammatory | 197.88 pg/mL | 33.3% | 269.86 pg/mL | 9.1% | 441.09 pg/mL | −48.6% | 48% | no statistically significant effect | appeared not to act as anti-inflammatory
